Numbered stars: 1 amine (or outer) side, 2 acyl side, 3 side chain; on linkers, the order of the positions; unused ones are H or OH. Bridge positions count the residues as written; N and C are the ends. Square brackets hold non-standard residues; d marks the D form. Ends that are not written are not given here. TBMB = c1c(C[*:1])cc(C[*:3])cc1C[*:2]; Sar = CNCC(=O)O
What follows are binders tested against T1, human plasma Kallikrein (human, UniProt P03952 20-638) (assay: enzyme inhibition).
T1 construct: also called hPK; human PK
T1 sequence (P03952 20-638 limits assumed): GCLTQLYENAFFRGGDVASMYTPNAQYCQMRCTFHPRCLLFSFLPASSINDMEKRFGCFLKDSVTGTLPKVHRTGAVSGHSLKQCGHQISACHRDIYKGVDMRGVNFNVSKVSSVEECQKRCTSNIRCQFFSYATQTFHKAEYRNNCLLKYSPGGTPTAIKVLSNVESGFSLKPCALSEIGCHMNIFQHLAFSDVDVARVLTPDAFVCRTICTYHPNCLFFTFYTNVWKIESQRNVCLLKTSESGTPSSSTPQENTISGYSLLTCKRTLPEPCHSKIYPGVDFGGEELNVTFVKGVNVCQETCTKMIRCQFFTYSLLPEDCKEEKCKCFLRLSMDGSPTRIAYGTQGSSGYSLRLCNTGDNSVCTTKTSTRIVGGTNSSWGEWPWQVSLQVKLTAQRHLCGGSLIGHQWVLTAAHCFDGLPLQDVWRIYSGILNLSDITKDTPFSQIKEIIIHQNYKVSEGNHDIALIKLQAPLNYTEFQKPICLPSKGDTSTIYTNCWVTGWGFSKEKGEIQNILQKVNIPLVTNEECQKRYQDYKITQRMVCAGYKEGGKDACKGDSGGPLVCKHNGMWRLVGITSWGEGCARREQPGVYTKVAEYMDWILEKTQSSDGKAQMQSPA
Experimental: (§1) Functional enzyme assays were conducted in 10 mM Tris HCl, 150 mM NaCl, 10 mM MgCl2, 1 mM CaCl₂) and 1 mg/mL BSA (all Sigma UK) pH7.4 at 25° C. in solid black 96 well plates. […] Release of AMC was measured using a Pherastar FS (BMG Labtech), excitation 360 nm, emission 460 nm. The rate of the linear phase of the reaction, typically 5 to 45 minutes, was calculated in MARS data analysis software (BMG labtech). The rate was then used to calculate the IC50 and Ki in Prism (GraphPad).

| Binder | Ki [nM] | IC50 [nM] |
| --- | --- | --- |
| ACTWPARCTHQNWCA (linker 2-8-14 via TBMB; not fully specified (N-terminus, C-terminus)) [06-09] | 1.2 | – |
| ACTWPARCTMQNWCA (linker 2-8-14 via TBMB; not fully specified (N-terminus, C-terminus)) [06-A2*] | 181 | – |
| ACADPWACLFRRPCA (linker 2-8-14 via TBMB; not fully specified (N-terminus, C-terminus)) [06-63 T] | 1280 | – |
| ACTYPYKCLHQNLCA (linker 2-8-14 via TBMB) [2A10] | 4.98 | – |
| ACAWPAKCLTRELCA (linker 2-8-14 via TBMB; not fully specified (N-terminus, C-terminus)) [1B1] | 8.1 | – |
| ACGGYNNCRAFSYCA (linker 2-8-14 via TBMB; not fully specified (N-terminus, C-terminus)) [1F7] | 2.2 | – |
| ACSWPARCVHQDLCA (linker 2-8-14 via TBMB; not fully specified (N-terminus, C-terminus)) [06-34-01] | – | 0.15 |
| ACRWPARCTHQDLCA (linker 2-8-14 via TBMB; not fully specified (N-terminus, C-terminus)) [06-34-02] | – | 0.16 |
| ACSWPARCTHQDLCA (linker 2-8-14 via TBMB; not fully specified (N-terminus, C-terminus)) [06-34-03 (01 + 02)] | – | 0.082 |
| ACSWPARCNHQDLCA (linker 2-8-14 via TBMB; not fully specified (N-terminus, C-terminus)) [06-57] | 0.4 | – |
| ACAWPARCAHQDLCA (linker 2-8-14 via TBMB; not fully specified (N-terminus, C-terminus), also called R1A/V6A) [06-34-03 - Ala1,6] | 0.147 | – |
| AC[Sar]WPARC[Sar]HQDLCA (linker 2-8-14 via TBMB; not fully specified (N-terminus, C-terminus), also called AC(N-MeG)WPARC(N-MeG)HQDLCA) [06-34-03 - N-MeGly1,6] | 24.8 | – |
| ACRWPARCLTTSLCA (linker 2-8-14 via TBMB; not fully specified (N-terminus, C-terminus)) [06-59] | 0.5 | – |
| ACRWPARCTHQNYCA (linker 2-8-14 via TBMB; not fully specified (N-terminus, C-terminus)) [06-54 (2A2) T] | 0.49 | – |
| ACNWPYRCLHTDLCA (linker 2-8-14 via TBMB; not fully specified (N-terminus, C-terminus)) [06-157] | 3.3 | – |
| ACSWPYRCLHQDYCA (linker 2-8-14 via TBMB; not fully specified (N-terminus, C-terminus)) [06-61] | 5.8 | – |
| ACGVPYRCTHQEMCA (linker 2-8-14 via TBMB; not fully specified (N-terminus, C-terminus)) [06-64 T] | 6.9 | – |

These binders were tested against T2, rat plasma Kallikrein (rat, UniProt P14272 391-638, limits assumed) (assay: enzyme inhibition).
T2 construct: domain: catalytic domain; also called rPK; rat PK
T2 sequence (P14272 391-638 limits assumed): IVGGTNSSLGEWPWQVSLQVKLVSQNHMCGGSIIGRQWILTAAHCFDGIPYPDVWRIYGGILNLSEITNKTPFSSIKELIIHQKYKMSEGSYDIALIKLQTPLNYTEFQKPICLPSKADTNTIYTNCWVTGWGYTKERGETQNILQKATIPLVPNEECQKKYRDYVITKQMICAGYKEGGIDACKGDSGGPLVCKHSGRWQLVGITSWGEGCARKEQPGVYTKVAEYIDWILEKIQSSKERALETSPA
Experimental: as §1

| Binder | IC50 [nM] |
| --- | --- |
| ACSWPARCVHQDLCA (linker 2-8-14 via TBMB; not fully specified (N-terminus, C-terminus)) [06-34-01] | 6.12 |
| ACRWPARCTHQDLCA (linker 2-8-14 via TBMB; not fully specified (N-terminus, C-terminus)) [06-34-02] | 1.09 |
| ACSWPARCTHQDLCA (linker 2-8-14 via TBMB; not fully specified (N-terminus, C-terminus)) [06-34-03 (01 + 02)] | 0.87 |

What follows are binders tested against T1, human plasma Kallikrein (assay: phage binding assay).

| Binder | BINDING ASSAY SIGNAL |
| --- | --- |
| CSWPARCTHQDLC (linker 1-7-13 via TBMB, on phage) | 110 |

Target: T1, human plasma Kallikrein
Assay: phage binding assay
Remark: another data set of the same source
Experimental: Library transformant colonies, or selection output colonies, were picked and grown as individual cultures in 2TY broth containing selective antibiotic. The picked colonies were DNA-sequenced using a QIAgen PyroMark Q96 DNA sequencer to reveal the amino-acid substitution present in each clone, and were assayed for human plasma Kallikrein binding as follows. The phage-containing supernatant was harvested from the culture and phage were cyclised with tris bromomethyl benzene (TBMB) based on the methods of Heinis et al (Nature Chemical Biology vol. 5 pp 502-507 (2009)). The purified phage from this process were assayed for binding to biotinylated human plasma Kallikrein using a homogeneous plate-based binding assay; assay read-out measured on a BMG Labtech Pherastar FS plate reader. The quantitative binding data from duplicate assay samples was averaged (mean) and expressed as signal:background. […] The assay data was correlated with the peptide sequences.
Selections against human plasma Kallikrein were performed at a variety of stringencies (see Phage selections' in Methods above). All output sequences were identified and analysed for target binding (see ‘Randomisation of peptide domains—Assay of binding of individual clones’ in Methods above). Table 17 lists each unique sequence, its relative abundance in the selection output (frequency), and a rank number according to target binding strength.

| Binder | RANK (Kallikrein binding) |
| --- | --- |
| CSWPARCTHQDLC (linker 1-7-13 via TBMB, on phage) | 1 |
| CSFSYKCTHQDLC (linker 1-7-13 via TBMB (inferred), on phage) | 35 |
| CSHPFRCTHQDLC (linker 1-7-13 via TBMB (inferred), on phage) | 9 |
| CSHPYRCTHQDLC (linker 1-7-13 via TBMB (inferred), on phage) | 8 |
| CSIPFKCTHQDLC (linker 1-7-13 via TBMB (inferred), on phage) | 32 |
| CSLPIRCTHQDLC (linker 1-7-13 via TBMB, on phage) | 30 |
| CSMPYRCTHQDLC (linker 1-7-13 via TBMB, on phage) | 31 |
| CSWAARCTHQDLC (linker 1-7-13 via TBMB, on phage) | 7 |
| CSWHARCTHQDLC (linker 1-7-13 via TBMB, on phage) | 24 |
| CSWLARCTHQDLC (linker 1-7-13 via TBMB, on phage) | 4 |
| CSWPFRCTHQDLC (linker 1-7-13 via TBMB, on phage) | 14 |
| CSWPSRCTHQDLC (linker 1-7-13 via TBMB, on phage) | 2 |
| CSWPYKCTHQDLC (linker 1-7-13 via TBMB, on phage) | 28 |
| CSWPYRCTHQDLC (linker 1-7-13 via TBMB, on phage) | 10 |
| CSWQARCTHQDLC (linker 1-7-13 via TBMB, on phage) | 42 |
| CSWSARCTHQDLC (linker 1-7-13 via TBMB, on phage) | 19 |
| CSWSYRCTHQDLC (linker 1-7-13 via TBMB, on phage) | 36 |
| CSWWARCTHQDLC (linker 1-7-13 via TBMB, on phage) | 27 |
| CSYPFRCTHQDLC (linker 1-7-13 via TBMB, on phage) | 21 |
| CSYPIRCTHQDLC (linker 1-7-13 via TBMB, on phage) | 18 |
| CSYPWRCTHQDLC (linker 1-7-13 via TBMB, on phage) | 33 |
| CSYPYRCTHQDLC (linker 1-7-13 via TBMB, on phage) | 26 |
| CSQVVGCTHQDLC (linker 1-7-13 via TBMB, on phage) | 38 |
| CSLFDHCTHQDLC (linker 1-7-13 via TBMB, on phage) | 40 |
| CSHRRWCTHQDLC (linker 1-7-13 via TBMB (inferred), on phage) | 41 |

— US20180362585A1 (Bicycle, published 2018)
